Laboratory results taken from US11667697 (VANDERBILT UNIVERSITY, dated 2023).

Columns and labels:
VACV H3 protein [1] = target: T1, VACV H3 protein (vaccinia virus, UniProt P07240 1-278); assay: purified antigen ELISA
T1 sequence: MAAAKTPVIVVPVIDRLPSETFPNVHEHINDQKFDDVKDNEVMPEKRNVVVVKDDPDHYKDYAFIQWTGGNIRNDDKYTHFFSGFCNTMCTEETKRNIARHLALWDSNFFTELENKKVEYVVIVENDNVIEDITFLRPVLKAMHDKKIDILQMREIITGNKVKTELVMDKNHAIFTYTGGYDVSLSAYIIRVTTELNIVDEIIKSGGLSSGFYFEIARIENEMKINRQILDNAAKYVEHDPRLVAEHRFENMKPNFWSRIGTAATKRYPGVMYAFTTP

VACV H3 protein [2] = target: T1, VACV H3 protein; assay: lysate ELISA
VACV H3 protein [3] = target: T1, VACV H3 protein; assay: cell-based or functional assay
VACV D8 protein = target: T2, VACV D8 protein (vaccinia virus, UniProt P04195 1-261); assay: antigen ELISA/array/BLI
T2 sequence: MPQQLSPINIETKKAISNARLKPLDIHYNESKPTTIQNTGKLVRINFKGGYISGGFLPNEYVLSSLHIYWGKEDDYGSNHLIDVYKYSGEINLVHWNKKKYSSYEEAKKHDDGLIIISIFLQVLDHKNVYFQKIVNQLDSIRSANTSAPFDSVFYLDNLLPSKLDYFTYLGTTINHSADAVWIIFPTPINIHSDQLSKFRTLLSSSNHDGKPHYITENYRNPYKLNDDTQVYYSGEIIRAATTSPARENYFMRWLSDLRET

VACV L1 protein [4] = target: T3, VACV L1 protein (vaccinia virus, UniProt P07612 1-185); assay: purified antigen ELISA
T3 sequence: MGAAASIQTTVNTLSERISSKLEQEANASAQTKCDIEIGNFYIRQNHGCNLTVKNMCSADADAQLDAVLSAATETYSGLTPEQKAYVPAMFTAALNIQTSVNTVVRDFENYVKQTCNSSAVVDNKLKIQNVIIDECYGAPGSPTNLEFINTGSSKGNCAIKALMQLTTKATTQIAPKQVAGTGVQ

VACV L1 protein [5] = target: T3, VACV L1 protein; assay: lysate ELISA
VACV L1 protein [6] = target: T3, VACV L1 protein; assay: cell-based or functional assay
VARV ortholog of B5 = VARV ortholog of B5 (variola virus); assay: purified antigen ELISA
VACV B5 protein [7] = target: T4, VACV B5 protein (vaccinia virus, UniProt Q01227 20-275); assay: purified antigen ELISA
CPXV ortholog of B5 [8] = target: CPXV ortholog of B5 (cowpox virus); assay: lysate ELISA
MPXV ortholog of B5 = MPXV ortholog of B5 (monkeypox virus); assay: lysate ELISA
VACV B5 protein [9] = target: T4, VACV B5 protein; assay: lysate ELISA
CPXV ortholog of B5 [10] = target: CPXV ortholog of B5 (cowpox virus); assay: cell-based or functional assay
VACV B5 protein [11] = target: T4, VACV B5 protein; assay: cell-based or functional assay

B1: VACV-314 (antibody, V domains shown)
VH: QVQLVQSGPGLVKPSETLSLTCTVSGGSISSYYWSWIRQPPGKGLEYIGHIYYSGGTKYNPSLRSRVTISVDTSKNQFSLKLTSVTAADTAVYYCARLAGRKPDADSWGQGTLVTVSS
VL: QPVLTQEPSLTVSPGGTVTLTCASSTGAVTSGFFPNWLQQKPGQAPRALIYSTNNKHSWTPARFSGSLLGGKAALTLSGVQPEDEAEYYCLLYYGGVVVFGGGTKLTVL
notes: human IgG3, anti-H3
Which EC50 (VACV H3 protein [1]) does the source give for B1 here?
The EC50 was 0.1 µg/mL.

What about the EC50 (VACV H3 protein [2]) of the same binder?
The EC50 was 3 ng/mL.

And the “PRNT Emax, VACV MV+C'” value (VACV H3 protein [3])?
Its value is 74%.

And the “PRNT IC50, VACV MV+C'” value (VACV H3 protein [3])?
The value was 0.1 µg/mL.

B2: MPXV-79 (antibody, V domains shown)
VH: QVQLVQSGAEVKKPGASVKVSCKASGYSFRSNGISWVRQAPGQGFEWLGWIAAYNGDTKYVQKFQGRLTMTTDTSTDTAYMELWSLRSDDTAVYYCARDPKLGRKGSAFDIWGQGTLVIVSS
VL: EIVLTQSPATLSLSPGGRATLSCRASQSVGNYLTWYQQKPGQAPRLLIFDGSTRATGIPARFSGSGSGTDFTLTISSLEPEDFAVYYCLQRSDLYTFGQGTKVDIK
notes: human IgG1, anti-H3
For B2, which EC50 (VACV H3 protein [1]) is on record?
The EC50 was 0.06 µg/mL.

What about the EC50 (VACV H3 protein [2]) of the same binder?
Its EC50 is 4 ng/mL.

What about the “PRNT Emax, VACV MV+C'” value (VACV H3 protein [3]) of the same binder?
The value was 62%.

And the “PRNT IC50, VACV MV+C'” value (VACV H3 protein [3])?
The value was 4.7 µg/mL.

B3: VACV-77 (antibody, V domains shown)
VH: QVQLQESGPGLVKPSETLSLTCTVSGGSMSSYFWSWIRQPPGKGLEWIGYISYSGGTNYNPSLKSRVTISVDTSKNQFSLKLTSVTAADTAVYYCAREDRGSPDYWGQGTLVTVSS
VL: QSVLTQPPSVSAAPGRKVTISCSGSSSNIGNNYVSWYQQLPGTAPKLLIYDNYKRPSGIPDRFSGSKSGTSATLGITGLQTGDEADYYCGTWDLSLSAGVFGGGTKLTVL
Does B3 bind (VACV D8 protein)?
Result: binds

B4: VACV-315 (antibody, V domains shown)
VH: EVQLLESGGGLVQPGGSLKLSCAASGFIFSNYAMGWVRQAPGKGLEWVSALSASDGVTSYADSVKGRFTISRDNSKNTMYLQMNRLRTEDTAIYFCAKGRARVNNIYRYFDHWGQGTLVTVSS
VL: QSVLTQPASVSGSPGQSITISCTGTSSDVGAYTFVSWYQHHPGKAPKLIIYEVSNRPSGVSDRFSGSKSGNTASLTISGLQAEDEADYYCNSYTTTSPWVFGGGTQLTVL
notes: human IgG1, anti-H3
B4 was tested. Which EC50 (VACV H3 protein [1]) did it give?
The EC50 was 0.2 µg/mL.

And the EC50 (VACV H3 protein [2])?
Its EC50 is 2 ng/mL.

And the “PRNT Emax, VACV MV+C'” value (VACV H3 protein [3])?
Its value is 72%.

What about the “PRNT IC50, VACV MV+C'” value (VACV H3 protein [3]) of the same binder?
The value was 2.2 µg/mL.

B5: MPXV-87 (antibody, V domains shown)
V domain 1: QVQLVQSGAEVKKPGASVKVSCKASGYTFTSHGIIWVRQAPGQGLEWMGWISVYNDNTNSAQKFQDRVTMTTATSTSTAYMELRSLRSDDTAVYYCARSSSGPRYYYYGMDVWGQGTTSP
V domain 2: QSVVTQPPSVSGAPGQRVTISCTGSSSNIGAGYAVHWYYQLPGIAPKLLIFGNNNRPSGVPDRFSGSKSGTSASLAITGLQAEDEADYYCQSYDSSLSGWVFGGGTQVTVL
notes: human IgG1, anti-L1
With B5 as the binder, how does the EC50 (VACV L1 protein [4]) read?
The EC50 was 0.3 µg/mL.

What about the EC50 (VACV L1 protein [5]) of the same binder?
Its EC50 is 0.01 µg/mL.

And the “PRNT Emax, VACV MV” value (VACV L1 protein [6])?
The value was 61%.

What about the “PRNT Emax, VACV MV+C'” value (VACV L1 protein [6]) of the same binder?
The value was 72%.

And the “PRNT IC50, VACV MV” value (VACV L1 protein [6])?
Its value is 5 µg/mL.

And the “PRNT IC50, VACV MV+C'” value (VACV L1 protein [6])?
The value was 0.8 µg/mL.

B6: MPXV-92 (antibody)
chain 1: QVQLVESGPGLVKPSGTLSLTCAVSGGSISSSNWWSWVRQPPGKGLEWIGEIYHSGSTNYTPSLKSRVTISLDKSKNQFSLKLSSVTAADTAMYYCARNFYPGYLQYWGQGTLVTVSS
chain 2: QSALTQPASVSGSPGQSITISCTGTISDVGGYNYVSWYQQHPGKAPKLMIYDVNKRPSGVSNRFSGSKSGNT
For B6, which EC50 (VARV ortholog of B5) is on record?
The EC50 was 1.2 µg/mL.

What about the EC50 (VACV B5 protein [7]) of the same binder?
The EC50 was 0.7 µg/mL.

And the EC50 (CPXV ortholog of B5 [8])?
The EC50 was 0.014 µg/mL.

What about the EC50 (MPXV ortholog of B5) of the same binder?
Its EC50 is 0.046 µg/mL.

What about the EC50 (VACV B5 protein [9]) of the same binder?
Its EC50 is 0.064 µg/mL.

And the “PRNT IC50, CPXV EV+C'” value (CPXV ortholog of B5 [10])?
The value was 0.5 µg/mL.

And the “PRNT Emax, VACV EV+C'” value (VACV B5 protein [11])?
Its value is 86%.

And the “PRNT IC50, VACV EV+C'” value (VACV B5 protein [11])?
The value was 0.08 µg/mL.
